In publication PMC12339479 one finds Kd and kon data, which are given here for four substances.

The target of the assay is Chicken ACE2-hFc (soluble chicken ACE2 residues 18-740 fused to human IgG1 Fc) (chicken (Gallus gallus)). The assay is described as follows: SPR. (SPR reads the build-up and loss of mass on a sensor chip optically.)
The substance “SARS-CoV-2 Alpha (B.1.1.7) RBD monomer (from UniProt P0DTC2) (domain or fragment)” showed a Kd of 409 µM and a kon of 300 M⁻¹ s⁻¹.
Substance “SARS-CoV-2 Gamma (P.1) RBD monomer (from UniProt P0DTC2) (domain or fragment)” returned a Kd of 44.7 µM and a kon of 4200 M⁻¹ s⁻¹.
Taken in the same sequence, the figures for “SARS-CoV-2 Omicron BA.2 RBD monomer (from UniProt P0DTC2) (domain or fragment)” were 0.334 µM and 258000 M⁻¹ s⁻¹.
“SARS-CoV-2 Omicron BA.5 RBD monomer (from UniProt P0DTC2) (domain or fragment)” displayed a Kd of 0.375 µM.

Broadly, the Kd is the concentration at which binding is half-saturated. Read a high Kd as lower affinity. Usually kon stands for the rate constant with which the complex forms. The low end stands for slower complex formation, the high end for faster complex formation.
